Target: T1, His-tagged AMF expressed in and purified from E. coli (human, UniProt P06744 1-558)
T1 construct: autocrine motility factor (AMF) / phosphoglucose isomerase (PGI); the E. coli expression construct is not described; also called his-AMF; PGI; source: E. coli (BL21), purified (Ni-NTA agarose, PD-10 desalting); not shown: His, N-terminal, kept
Assay: pull-down; GST fusions held on glutathione-agarose and washed; incubated with purified his-AMF or TRIM25 in buffer D (50 mM Tris/HCl pH 7.5, 100 mM NaCl, 1 mM DTT, 0.1% Tween20), 3 hr at 4 °C; retained protein detected by immunoblot
Settings: both partners purified

B1: GST fusion bearing the entire C-terminal (cytoplasmic) domain of gp78 (domain or fragment, human, UniProt Q9UKV5 309-643, looked up)
chain: IRRHKNYLRVVGNMEARFAVATPEELAVNNDDCAICWDSMQAARKLPCGHLFHNSCLRSWLEQDTSCPTCRMSLNIADNNRVREEHQGENLDENLVPVAAAEGRPRLNQHNHFFHFDGSRIASWLPSFSVEVMHTTNILGITQASNSQLNAMAHQIQEMFPQVPYHLVLQDLQLTRSVEITTDNILEGRIQVPFPTQRSDSIRPALNSPVERPSSDQEEGETSAQTERVPLDLSPRLEETLDFGEVEVEPSEVEDFEARGSRFSKSADERQRMLVQRKDELLQQARKRFLNKSSEDDAASESFLPSEGASSDPVTLRRRMLAAAAERRLQKQQTS
notes: Expression vector provided by A Weissman; also called GST-gp78C; gp78C; source: E. coli (BL21), lysate applied to glutathione-agarose and washed; also purified on glutathione-agarose
B1: binds.
